From patent publication US20170101472A1 (Regeneron, published 2017) come the findings set out here.

What is called Kd is the constant that tells how readily two partners part at equilibrium. The EC50 is the midpoint of the concentration-response curve. A higher EC50 goes with a less potent agent. What is called IC50 is the concentration that inhibits the measured activity by half. Lower therefore signals inhibition by little substance. The koff is a measure of how fast the partners let go of each other. What is called kon is the second-order rate constant of association.

Assay [1] deals with T1, recombinant human LAG3 expressed with a C-terminal myc-myc-hexahistidine tag (human, UniProt P18627 29-450).
T1 construct: also called hLAG3-mmh; hLAG3.mmh
In words: SPR, mAb captured, 37 C. Here is the method: (§1) The BiaCore sensor surface was derivatized with either a polyclonal rabbit anti-mouse antibody (GE, # BR-1008-38) or with a monoclonal mouse anti-human Fc antibody (GE, # BR-1008-39) to capture approximately 50-85 RUs of anti-LAG3 monoclonal antibodies, expressed with either a mouse Fc or a human Fc, respectively. […] The binding of the LAG3 reagents to captured monoclonal antibodies was monitored for 4 minutes while their dissociation from the antibodies was monitored for 8 minutes in HBST running buffer (0.01 M HEPES pH 7.4, 0.15 M NaCl, 3 mM EDTA, 0.05% v/v Surfactant P20). Experiments were performed at 25° C. and 37° C. Kinetic association (kₐ) and dissociation (kd) rate constants were determined by processing and fitting the data to a 1:1 binding model using Scrubber 2.0c curve fitting software. Binding dissociation equilibrium constants (KD) and dissociative half-lives (t_{1/2}) were then calculated from the kinetic rate constants as: KD (M)=kd/kₐ and t_{1/2} (min)=[ln2/(60*kd)].
(In SPR one partner is held on a chip, and binding of the other changes the refractive index at the surface.)

Assay [2] addresses T2, recombinant human LAG3 expressed with a C-terminal mouse IgG2a mFc tag (human).
T2 construct: Called dimeric; also called hLAG3-mFc; hLAG3 dimer
T2 chain: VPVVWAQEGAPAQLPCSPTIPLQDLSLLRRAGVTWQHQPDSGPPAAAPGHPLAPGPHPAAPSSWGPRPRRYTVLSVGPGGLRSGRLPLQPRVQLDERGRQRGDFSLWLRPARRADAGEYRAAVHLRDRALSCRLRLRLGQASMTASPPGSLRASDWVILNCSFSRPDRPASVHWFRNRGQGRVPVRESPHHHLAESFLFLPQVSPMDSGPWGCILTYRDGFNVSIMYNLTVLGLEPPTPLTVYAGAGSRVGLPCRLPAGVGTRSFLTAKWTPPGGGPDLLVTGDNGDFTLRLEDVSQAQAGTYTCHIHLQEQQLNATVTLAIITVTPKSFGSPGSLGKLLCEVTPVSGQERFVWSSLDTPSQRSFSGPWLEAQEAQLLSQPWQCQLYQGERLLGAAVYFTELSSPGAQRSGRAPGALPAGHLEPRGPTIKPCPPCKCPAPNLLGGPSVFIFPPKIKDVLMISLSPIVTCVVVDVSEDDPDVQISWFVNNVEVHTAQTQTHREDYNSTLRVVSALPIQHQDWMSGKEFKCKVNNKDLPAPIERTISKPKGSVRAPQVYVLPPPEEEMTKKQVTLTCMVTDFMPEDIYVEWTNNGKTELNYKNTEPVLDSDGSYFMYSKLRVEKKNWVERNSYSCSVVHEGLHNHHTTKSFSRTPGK
The assay is described as follows: SPR, mAb captured, 37 C. Here is the method:
as §1

Assay [3] addresses T3, human LAG3 expressed on HEK293 cells (human, UniProt P18627 23-525).
T3 construct: also called hLAG3; HEK293/hLAG3
T3 sequence: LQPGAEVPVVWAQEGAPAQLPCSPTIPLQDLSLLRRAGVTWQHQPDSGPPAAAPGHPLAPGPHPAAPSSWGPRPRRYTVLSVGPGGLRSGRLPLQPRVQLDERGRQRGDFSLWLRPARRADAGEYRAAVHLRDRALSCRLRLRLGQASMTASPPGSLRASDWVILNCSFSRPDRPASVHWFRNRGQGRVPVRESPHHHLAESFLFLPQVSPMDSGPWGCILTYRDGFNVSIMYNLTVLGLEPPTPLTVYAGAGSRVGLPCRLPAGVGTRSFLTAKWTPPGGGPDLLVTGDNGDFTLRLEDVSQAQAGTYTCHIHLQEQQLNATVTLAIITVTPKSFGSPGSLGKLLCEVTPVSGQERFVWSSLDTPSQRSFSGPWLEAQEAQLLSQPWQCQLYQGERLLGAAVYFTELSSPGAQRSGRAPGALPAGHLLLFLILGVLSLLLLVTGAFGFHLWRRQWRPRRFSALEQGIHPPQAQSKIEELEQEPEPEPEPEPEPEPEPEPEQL
The assay is described as follows: flow cytometry, HEK293/hLAG3 cells. On the procedure: The serially diluted antibodies were added to the cell suspension and incubated for 15-30 minutes on ice. The cells were centrifuged and pellets were washed with staining buffer to remove unbound antibodies. […] The cells were centrifuged and pellets were washed with staining buffer to remove unbound secondary F(ab′)2 and fixed overnight with a 1:1 dilution of Cytofix (BD Biosciences, #554655) and staining buffer. Following day, fixed cells were centrifuged and pellets were washed with staining buffer, resuspended and filtered. Fluorescence measurements were acquired on HyperCyt® cytometer and analyzed in ForeCyt™ (IntelliCyt; Albuquerque, N. Mex.) to determine the mean fluorescence intensities (MFI). The EC₅₀ values were calculated from a four-parameter logistic equation over an 11-point response curve using GraphPad Prism. EC₅₀ was defined as the concentration of antibody at which 50% of maximal binding signal is detected. The MFI ratio for each antibody was calculated by dividing the MFI at 100 nM by MFI at 0 nM of antibody concentration.

The target of assay [4] is T3, human LAG3 expressed on HEK293 cells. In words: cell adherence assay, blocks RAJI (human MHCII) cells on HEK293-hLAG3. On the procedure:
Cells were plated into sterile Nunclon™ Delta 96-Well MicroWell™ Black Optical Bottom Plates (Thermo Scientific). The wells from the perimeter of the plate were not included in the assay design to avoid edge effects.
On the day of treatment, all antibodies were serially (1:3) diluted in RPMI media (without FBS or supplements added). The 9-point dilution ranged between 45 pM to 300 nM, with the last dilution point containing no mAb. […] While the plated HEK293-LAG3 cells were incubating with the test or control antibodies, non-adherent B-cells (RAJI or A20) were labeled with Calcein AM using the following procedure. RAJI and A20 suspension cells were harvested and centrifuged at 1,200 rpm for 5 minutes. Cell pellets were resuspended in 1×PBS and counted. Cells were washed with RPMI, and resuspended in RPMI at a concentration of 10⁶ cells per 1 ml. Cells were labeled by adding 5 μL of Calcein AM per 1 ml of cell suspension and incubated for 30 min at 37° C., at 5% CO₂. […] Subsequently, 10 μL of BD Pharmingen Fc Block (0.5 mg/mL) was added per 1 ml of the Calcein AM labeled cells, which were incubated at RT for 10 minutes. The Calcein AM-stained, Fc-blocked RAJI or A20 cells were resuspended in RPMI to a final concentration of 3×10⁶ cells per 1 ml and subsequently used in the adherence assay.
The labeled suspension cells were incubated with the HEK293 monolayer for 1 hour at 37° C., at 5% CO₂.

B1: H4sH15482P (antibody, human IgG4 S228P, kappa)
heavy: QVQLVESGGGVVQPGRSLRLSCVASGFTFSSYGMHWVRQAPGKGLEWVAIIWYDGSNKYYADSVKGRFTISRDNSKNTQYLQMNSLRAEDTAVYYCASVATSGDFDYYGMDVWGQGTTVTVSSASTKGPSVFPLAPCSRSTSESTAALGCLVKDYFPEPVTVSWNSGALTSGVHTFPAVLQSSGLYSLSSVVTVPSSSLGTKTYTCNVDHKPSNTKVDKRVESKYGPPCPPCPAPPVAGPSVFLFPPKPKDTLMISRTPEVTCVVVDVSQEDPEVQFNWYVDGVEVHNAKTKPREEQFNSTYRVVSVLTVLHQDWLNGKEYKCKVSNKGLPSSIEKTISKAKGQPREPQVYTLPPSQEEMTKNQVSLTCLVKGFYPSDIAVEWESNGQPENNYKTTPPVLDSDGSFFLYSRLTVDKSRWQEGNVFSCSVMHEALHNHYTQKSLSLSLGK
light: EIVLTQSPATLSLSPGERTTLSCRASQRISTYLAWYQQKPGQAPRLLIYDASKRATGIPARFSGSGSGTGFTLTISSLEPEDFAVYYCQQRSNWPLTFGGGTKVEIKRTVAAPSVFIFPPSDEQLKSGTASVVCLLNNFYPREAKVQWKVDNALQSGNSQESVTEQDSKDSTYSLSSTLTLSKADYEKHKVYACEVTHQGLSSPVTKSFNRGEC
notes: H4sH = modified human IgG4 Fc; also called mAb1
For B1, the Kd in assay [1] turned out to be 1.82 nM; in assay [2], 0.0316 nM. The t1/2 turned out to be 0.377 h in assay [1] and 1.17 h in assay [2]. Also, the EC50 in assay [3] turned out to be 1.11 nM. The same molecule registered an IC50 in assay [4] of 3.3 nM.

B2: H4H15482P (antibody, human IgG4 S228P, kappa)
heavy: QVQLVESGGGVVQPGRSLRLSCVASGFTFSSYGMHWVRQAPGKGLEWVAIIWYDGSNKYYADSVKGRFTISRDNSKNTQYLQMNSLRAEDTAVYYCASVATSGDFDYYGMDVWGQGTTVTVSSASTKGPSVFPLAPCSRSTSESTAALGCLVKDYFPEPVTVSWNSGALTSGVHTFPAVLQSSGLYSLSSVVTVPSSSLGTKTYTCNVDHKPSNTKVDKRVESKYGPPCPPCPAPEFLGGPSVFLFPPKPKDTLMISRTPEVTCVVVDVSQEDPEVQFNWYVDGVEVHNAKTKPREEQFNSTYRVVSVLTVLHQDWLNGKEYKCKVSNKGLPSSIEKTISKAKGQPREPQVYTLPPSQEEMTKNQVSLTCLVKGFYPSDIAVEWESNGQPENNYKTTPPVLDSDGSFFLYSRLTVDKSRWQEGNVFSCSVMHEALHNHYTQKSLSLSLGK
light: EIVLTQSPATLSLSPGERTTLSCRASQRISTYLAWYQQKPGQAPRLLIYDASKRATGIPARFSGSGSGTGFTLTISSLEPEDFAVYYCQQRSNWPLTFGGGTKVEIKRTVAAPSVFIFPPSDEQLKSGTASVVCLLNNFYPREAKVQWKVDNALQSGNSQESVTEQDSKDSTYSLSSTLTLSKADYEKHKVYACEVTHQGLSSPVTKSFNRGEC
notes: H4H = human IgG4 Fc with S108P
B2: the figures for the Kd in assay [1] and in assay [2] were 1.96 nM and 0.0891 nM, respectively. Also, the results for the t1/2 in assay [1] and in assay [2] were 0.337 h and 2.13 h, respectively. The EC50 in assay [3] stood at 1.91 nM. Besides, half-maximal inhibition in assay [4] (IC50) required 15 nM.

B3: H4H15479P (antibody, human IgG4, V domains shown)
VH: QVQLQQWGAGLLNPSETLSLTCAVYGGAFSDYYWNWIRQPPGKGLEWIGEINHRGSTNYNPSLKSRVTISVDTSKNQFSLRMSSVTAADAAVYYCARGEDYDIWNGYYQEKWGQGTLVTVSS
VL: EIVLTQSPATLSLSPGERATLSCRASQSISTYLAWYQQKPGQAPRLLIYDASKRATGIPARFSGSGSGTDFTLTISSLEPEDFVVYYCHQRSNWPLTFGGGTKVEIK
With B3, in assay [1], the Kd was 0.0321 nM, the koff is 4.08e-05 s⁻¹, the kon was found to be 1.27e+06 M⁻¹ s⁻¹ and the t1/2 worked out at 4.72 h. In assay [2], the Kd came out at 0.00399 nM, the koff was 1e-05 s⁻¹, the kon was 2.5e+06 M⁻¹ s⁻¹ and the t1/2 was at least 19.2 h. In assay [3], a half-maximal response (EC50) required 0.752 nM and the “Ratio of MFI (100 nM/0 nM)” value is 203. In assay [4], this molecule came in with an IC50 of 31 nM.

B4: H4sH15498P2 (antibody, V domains shown)
VH: EVQLVESGGGLVQPGGSLRLSCAASGFTFTSYAMTWVRQAPGKGLEWVSDISGSGGRTYYADSVKGRFTISRDNSKNMLYLQMNILRAEDTAVYHCAKGTGQQVDLYNYYYALDVWGQGTTVTVSS
VL: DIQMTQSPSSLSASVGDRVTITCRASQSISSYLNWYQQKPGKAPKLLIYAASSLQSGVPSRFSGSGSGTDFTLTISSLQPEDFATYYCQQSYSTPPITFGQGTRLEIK
notes: H4sH = human IgG4 Fc with 2 or more amino acid changes as disclosed in US20140243504
Turning to B4, in assay [1], the Kd was found to be 0.185 nM, the koff came out at 7.08e-05 s⁻¹, the kon was 378000 M⁻¹ s⁻¹ and the t1/2 worked out at 2.72 h. In assay [2], the Kd amounted to 0.0194 nM, the koff amounted to 1e-05 s⁻¹, the kon stood at 515000 M⁻¹ s⁻¹ and the t1/2 is at least 19.2 h. In assay [3], the EC50 was 7.92 nM and the “Ratio of MFI (100 nM/0 nM)” value is 401. The same molecule gave an IC50 in assay [4] of 16 nM.

B5: H4H15498P2 (antibody, human IgG4, V domains shown)
VH: EVQLVESGGGLVQPGGSLRLSCAASGFTFTSYAMTWVRQAPGKGLEWVSDISGSGGRTYYADSVKGRFTISRDNSKNMLYLQMNILRAEDTAVYHCAKGTGQQVDLYNYYYALDVWGQGTTVTVSS
VL: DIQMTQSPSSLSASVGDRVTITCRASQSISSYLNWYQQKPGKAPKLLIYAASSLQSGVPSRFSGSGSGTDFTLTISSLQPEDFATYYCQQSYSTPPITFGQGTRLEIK
notes: H4H = human IgG4 Fc with S108P hinge mutation
As to B5, in assay [1], the Kd was 0.0783 nM, the koff was found to be 2.96e-05 s⁻¹, the kon came out at 381000 M⁻¹ s⁻¹ and the t1/2 stood at 6.5 h. In assay [2], the equilibrium dissociation constant (Kd) was 0.0217 nM, the koff came to 1e-05 s⁻¹, the kon came to 460000 M⁻¹ s⁻¹ and the t1/2 was at least 19.2 h. In addition, in assay [3], the EC50 was found to be 5.76 nM and the “Ratio of MFI (100 nM/0 nM)” value came out at 305. Further, half-maximal inhibition in assay [4] (IC50) was put at 15 nM.

B6: H4sH14813N (antibody, human IgG4 S228P, kappa, V domains shown)
VH: QVQLQQWGAGLLKPSETLSLTCAVYGGSFSGYYWNWIRQPPGKGLEWVGEISHRGSTNYNPSLKSRVTISLDTSKNQFSLKLTSVTAADTAVYYCSRDEELEFRFFDYWGQGTLVTVSS
VL: EIVLTQSPATLSLSPGERATLSCRASQSVSSYLAWYQQKPGQAPRLLVYGASNRATGIPARFSGSGSGTDFTLTISSLEPEDFAFYYCQQRSNWPLTFGGGTKVEIKR
notes: H4sH = modified human IgG4 Fc
In the case of B6, in assay [1], the dissociation constant (Kd) came out at 0.266 nM, the koff worked out at 0.000154 s⁻¹, the kon stood at 578000 M⁻¹ s⁻¹ and the t1/2 was found to be 1.25 h. Also, in assay [2], the Kd worked out at 0.0295 nM, the koff came out at 0.000101 s⁻¹, the kon was found to be 3.42e+06 M⁻¹ s⁻¹ and the t1/2 came out at 1.91 h. For the same molecule, in assay [3], the response was half-maximal at 1.18 nM (EC50) and the “Ratio of MFI (100 nM/0 nM)” value amounted to 197. This molecule displayed an IC50 in assay [4] of 6 nM.
